Results from patent publication US20140161725A1 (H LEE MOFFITT CANCER CENTER AND RESEARCH INSTITUTE, published 2014).
Where no end group is shown, it is not given here. The star is where a group is joined. Dhc(Pam)2 = S-[2,3-bis(palmitoyl)oxy-(R)-propyl]-cysteine, CCCCCCCCCCCCCCCC(=O)OC[C@H](CSC[C@H](N)C(=O)*)OC(=O)CCCCCCCCCCCCCCC; PEGO = not defined here

How the values were obtained:
[1] = target: human carbonic anhydrase 9 (CAIX) (human) (UniProt Q16790); assay: in vivo fluorescence imaging of CAIX positive MDA-mb-231 tumour 24 h after injection; competitor unlabeled CAIX mAb
[2] = target: T1, human Toll-like receptor 2 (TLR2) (human, UniProt O60603 21-784); assay: cell-based or functional assay
[3] = target: T1, human Toll-like receptor 2 (TLR2); assay: in cyto competition binding assay
[4] = target: T1, human Toll-like receptor 2 (TLR2); assay: Eu TRF competition binding; competitor compound 11
[5] = target: T1, human Toll-like receptor 2 (TLR2); assay: Eu TRF competition binding on SU.86.86 cells; competitor 90 nM compound 11
[6] = target: T1, human Toll-like receptor 2 (TLR2); assay: Eu TRF competition binding on HEK-293/hTLR2 cells; competitor 90 nM compound 11
[7] = target: T1, human Toll-like receptor 2 (TLR2); assay: Eu TRF saturation binding on Capan-I cells
[8] = target: T1, human Toll-like receptor 2 (TLR2); assay: Eu TRF saturation binding on SU.86.86 cells
[9] = target: T1, human Toll-like receptor 2 (TLR2); assay: Eu TRF saturation binding on HEK-293/hTLR2 cells
[10] = target: T1, human Toll-like receptor 2 (TLR2); assay: Eu TRF saturation binding on TLR2 expressing cells
[11] = target: T1, human Toll-like receptor 2 (TLR2); assay: time-resolved fluorescence saturation binding assay
[12] = target: T1, human Toll-like receptor 2 (TLR2); assay: Eu TRF saturation binding on Capan-I cells; non-specific binding with 1 µM Pam2CSK4
[13] = target: T1, human Toll-like receptor 2 (TLR2); assay: Eu TRF saturation binding on SU.86.86 cells; non-specific binding with 1 µM Pam2CSK4
[14] = target: T1, human Toll-like receptor 2 (TLR2); assay: Eu TRF saturation binding on HEK-293/hTLR2 cells; non-specific binding with 1 µM Pam2CSK4
[15] = target: T1, human Toll-like receptor 2 (TLR2); assay: time-resolved fluorescence competitive binding assay
[16] = target: T1, human Toll-like receptor 2 (TLR2); assay: in vivo fluorescence imaging of TLR2 expressing SU.86.86 xenografts 24 h post-injection; competitor 20-fold excess Pam2CSK4

T1 sequence (O60603 21-784): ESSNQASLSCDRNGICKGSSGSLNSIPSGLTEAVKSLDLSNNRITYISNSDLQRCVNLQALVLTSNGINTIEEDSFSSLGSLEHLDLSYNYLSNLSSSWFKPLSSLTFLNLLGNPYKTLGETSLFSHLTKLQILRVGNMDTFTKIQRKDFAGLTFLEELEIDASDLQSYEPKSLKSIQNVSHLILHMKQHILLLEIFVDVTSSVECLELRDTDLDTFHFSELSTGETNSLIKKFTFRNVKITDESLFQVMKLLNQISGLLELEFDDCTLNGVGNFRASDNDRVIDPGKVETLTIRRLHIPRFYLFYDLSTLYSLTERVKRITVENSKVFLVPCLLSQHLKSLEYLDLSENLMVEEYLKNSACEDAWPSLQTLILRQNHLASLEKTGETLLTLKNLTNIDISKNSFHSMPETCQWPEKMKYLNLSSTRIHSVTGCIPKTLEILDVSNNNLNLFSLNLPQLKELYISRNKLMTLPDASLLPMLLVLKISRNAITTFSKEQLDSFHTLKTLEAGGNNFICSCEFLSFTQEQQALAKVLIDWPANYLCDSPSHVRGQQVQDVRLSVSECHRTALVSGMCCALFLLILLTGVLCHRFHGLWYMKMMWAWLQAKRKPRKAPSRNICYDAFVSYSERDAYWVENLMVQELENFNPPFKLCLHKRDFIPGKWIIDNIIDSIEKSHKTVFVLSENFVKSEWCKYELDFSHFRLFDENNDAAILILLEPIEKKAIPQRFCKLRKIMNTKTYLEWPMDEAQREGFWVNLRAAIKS

“CA9Ab-680 (anti-human CAIX monoclonal antibody, Clone 303123, R&D systems, conjugated to VivoTag-S 680)” was tested, and the fold decrease of probe fluorescence in the tumour after blocking with unlabeled CAIX mAb [1] was 1.7 times.

Molecule “Compound 10: Ac-PEGO-Cys(S-[2,3-bis(palmitoyl)oxy-(R)-propyl])-Gly-DSer-PEGO-NH2 (peptide)” has a fold of enhancement of luminescence at 1 µg/mL vs SAA at 10 µg/mL [2] of 5.2 fold, a fold of enhancement of luminescence vs SAA at 1 µg/mL [2] of 14 fold and a Ki [3] of 24 nM. It also gave a Ki [4] of under 100 nM, a Ki [5] of 91 nM and a Ki [6] of 25 nM.

Molecule “Compound 11: Eu-DTPA-PEGO-Cys(S-[2,3-bis(palmitoyl)oxy-(R)-propyl])-Gly-DSer-PEGO-NH2 (peptide)” has a Bmax [7] of 951000 AFU, a Bmax [8] of 270000 AFU and a Bmax [9] of 114000 AFU. The Kd [10] was under 100 nM, the Kd [11] was 30 nM and the Kd [12] was 78 nM. The Kd [13] was 74 nM and the Kd [14] was 34 nM.

Work on “Compound 12: Mpr-PEGO-Cys(S-[2,3-bis(palmitoyl)oxy-(R)-propyl])-Gly-DSer-PEGO-NH2 (peptide)” yielded a Ki [4] of under 100 nM and a Ki [5] of 25 nM.

In the case of “Compound 13: IRDye800CW-Mpr-PEGO-Cys(S-[2,3-bis(palmitoyl)oxy-(R)-propyl])-Gly-DSer-PEGO-NH2 (peptide)”, the Ki [4] is reported as under 100 nM, the Ki [15] is reported as 10 nM and the Ki [5] is reported as 67 nM. The Ki [6] was 11 nM and the unblocked/blocked tumor fluorescence (fold) [16] was 1.94 fold.

B1: Compound 9: Ac-PEGO-Cys(S-[2,3-bis(palmitoyl)oxy-(R)-propyl])-Gly-Ser-Gln-Asn-Leu-Ala-Ser-Leu-Glu-Glu-NH2 (peptide)
peptide: {Ac-PEGO-Dhc(Pam)2}-GSQNLASLEE-NH2
modifications: reading uncertain
With B1 the “fold of enhancement of luminescence at 1 µg/mL vs SAA at 10 µg/mL” value [2] was 4.8 fold and the “fold of enhancement of luminescence vs SAA at 1 µg/mL” value [2] was 13 fold.

B2: Compound 8: Ac-PEGO-Cys(S-[2,3-bis(palmitoyl)oxy-(R)-propyl])-Ser-Arg-Phe-Asp-Glu-Asp-Asp-Leu-Glu-NH2 (peptide)
peptide: SRFDEDDLE-NH2
modifications: not fully specified (some residues, N-terminus)
With B2 the “fold of enhancement of luminescence at 1 µg/mL vs SAA at 10 µg/mL” value [2] was 4.2 fold and the “fold of enhancement of luminescence vs SAA at 1 µg/mL” value [2] was 11 fold.
